Experimental data taken from patent US20190367592A1 (AC IMMUNE, published 2019).
Substitutions are numbered along the chain they refer to. Names may count otherwise. “And” between values parts separate entries of the source, which are not always exact repeats. Equal values may be shown once.

Key:
[1] = molecular target: T1, recombinant human Tau monomer, 2N4R isoform (amino acids 2-441) (human, UniProt P10636-8 2-441); experiment: SPR screen, hIgG captured, Tau monomer analyte
T1 construct: range 2-441; N-terminal His-tag removed with TEV protease; also called monomeric Tau
T1 sequence (P10636 other isoform, or with tags, fused parts or gaps limits assumed): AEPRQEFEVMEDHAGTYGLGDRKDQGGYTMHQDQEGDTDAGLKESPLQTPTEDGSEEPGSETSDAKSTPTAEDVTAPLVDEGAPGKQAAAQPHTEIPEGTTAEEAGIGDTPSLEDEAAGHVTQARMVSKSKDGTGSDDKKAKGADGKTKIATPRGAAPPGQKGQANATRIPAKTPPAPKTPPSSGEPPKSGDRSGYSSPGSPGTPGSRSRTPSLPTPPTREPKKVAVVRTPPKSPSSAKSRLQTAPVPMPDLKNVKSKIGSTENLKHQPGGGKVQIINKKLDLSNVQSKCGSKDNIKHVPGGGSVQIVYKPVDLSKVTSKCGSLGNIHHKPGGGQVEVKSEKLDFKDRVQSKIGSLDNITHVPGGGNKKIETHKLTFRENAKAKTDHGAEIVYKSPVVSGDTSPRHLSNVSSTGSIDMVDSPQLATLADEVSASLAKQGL
Method: (§1) Grafting onto consensus VH3, Vκ2 and Vκ1 frameworks was assessed. The heavy chain graft included murine residue at position 49 (Kabat numbering system). The Vκ2 graft included murine residues in framework positions 2 and 4. The Vκ1 graft included murine residues in framework positions 2, 4 and 43. Humanized variants were constructed by gene synthesis and subcloning into human IgG1 or IgG4 and Kappa chain mammalian expression vectors. Antibodies were expressed by co-transfection of the heavy and light chain plasmids into CHO cells and purified with affinity resin MabSelect Sure. Humanized variants were screened for affinity to human Tau monomer using the Biacore human IgG capture kit, a Series S CM5 chip and a Biacore T200 instrument. Antibodies were diluted to 2 μg/ml and captured for 15 seconds at 10 μl/min. Association and dissociation of 100, 33, 11 and 3.7 nM human Tau monomer in 10 mM HEPES pH7.4, 150 mM NaCl, 0.05% Tween 20 (running buffer, HBSP) was monitored for 180 seconds and 600 seconds respectively at a flow rate of 30 μl/min. A 1:1 binding model was applied to the results (Table 7).

[2] = molecular target: T1, recombinant human Tau monomer, 2N4R …; experiment: SPR detailed kinetics, hIgG captured, Tau monomer analyte
Method: as §1, with “Antibodies were diluted to 2 μg/ml and captured for 15 seconds at 10 μl/min.” left out, “A 1:1 binding model was applied to the results (Table 7).” left out
Antibody variants hu37D3-H9.v1, hu37D3-H9.v2, hu37D3-H9.v5 and hu37D3-H9.v6 were characterized further by surface plasmon resonance with additional antibody concentrations and longer association/dissociation times. These variants were analyzed with a broader range of human Tau monomer concentrations (1.2, 3.7, 11.1, 11.1, 33.3, 100 nM) and increased association (300 seconds) and dissociation (1200 seconds) periods. […]

[3] = molecular target: T1, recombinant human Tau monomer, 2N4R …; experiment: SPR; Normalized Rmax post-stress (2 weeks 40 C) / pre-stress
Method in brief: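 IgGs captured on anti-human IgG CM5 chip at 2 μg/ml; Tau monomer analyte at 0, 26.5 and 265 nM, 25° C., 180 s association, 300 s dissociation, in HBSP pH 7.4; KD from 1:1 fit. Stress: 0.1 mg/ml antibody held 2 weeks at 40° C versus ~4° C; Rmax normalized to capture level, post/pre ratio.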

[4] = molecular target: T1, recombinant human Tau monomer, 2N4R …; experiment: SPR, captured IgG, Tau monomer analyte, 1:1 model; fit-quality column: Yes
Method: Briefly, IgGs in 1 mL culuture were captured using tip columns that were custom packed with 20 μL MabSelect SuRe resin (Glygen Corp & GE Healthcare). After washing with 1×PBS pH 7.4, IgGs were eluted into 160 μL of 50 mM phosphoric acid pH 3 and neutralized with 12 μL of 20×PBS pH 11. MabSelect SuRe tip columns were stripped in 0.1 M NaOH and regenerated with 1×PBS pH 7.4 for consecutive use of up to 15 times. Purified antibodies in 96-well format were normalized to 0.1 mg/ml using a Hamilton Star liquid handling robot. The “pre-stress” samples were kept at approximately 4° C. and the “post-stress” samples were incubated at 40° C. for two weeks in a PCR machine. Functional stability of the variants was compared by running surface plasmon resonance kinetics experiments with the “pre-stress” and “post-stress” antibody preps. The antibodies were assessed using a human antibody capture CM5 Series S chip generated using the GE Biacore human IgG capture kit and a Biacore T200 instrument. Antibodies diluted to 2 μg/ml were immobilized using a 15 second injection time and 10 μl/min flow rate. Binding to Tau monomer at 0 nM, 26.5 nM and 265 nM, at 25° C., using a flow rate of 40 μl/min, was monitored for a 180 second association phase followed by a 300 second dissociation phase. Samples were run in 10 mM HEPES pH7.4, 150 mM NaCl, 0.05% Tween 20 (HBSP) using a multi-cycle kinetics format. Data was analyzed using BIAevaluation software, fitting a 1:1 binding model. The resulting affinity (KD) values are shown in FIG. 8A-D. A Stability Index was also calculated, using the rationale that affinity-compromised antibodies (due for example to deamidation of key residues) are expected to contribute equally to the IgG capture level (“Ligand Level”) but to contribute less to the measured Tau binding, and that this would be reflected in the experimentally derived value for Rmax. To account for variations in the amount of each antibody captured, Rmax was normalized for the antibody capture level (as measured by “Ligand Level”, Response Units immobilized during antibody capture). Thus Normalized Rmax is calculated as the experimental Rmax (units=RU) divided by the “Ligand Level” (Evaluation output representing the RU captured during the hIgG capture step, units=RU), and Stability Index is calculated here as Normalized Rmax (post-stress) divided by Normalized Rmax (pre-stress).

[5] = molecular target: T1, recombinant human Tau monomer, 2N4R …; experiment: SPR, hIgG captured, Tau monomer analyte
Method: Affinity was assessed at 25° C. using a Biacore T200 instrument, the GE Biacore human IgG capture kit and a CM5 Series S chip. The hIgG were diluted to 2 μg/ml in 10 mM HEPES pH7.4, 150 mM NaCl, 0.05% Tween 20 (running buffer, HBSP) and captured at a flow rate of 10 μl/min for 22 seconds. […] Between cycles the surface was regenerated using a 30 second injection of 3M Magnesium Chloride at 10 μl/min. A 1:1 binding model was fitted to the data and affinities for hu37D3-H9.v5 and hu37D3-H9.v5.3 (also referred to herein as hu37D3-H9.v5 N28D) calculated using kinetic analysis. Parameters used for the 1:1 fitting included the Instrument default of local fitting for the “RI” parameter.

[6] = molecular target: T2, full-length human Tau (flTau) (human, UniProt P10636-8 1-441); experiment: indirect ELISA, flTau coated, hybridoma supernatant diluted, O.D.
T2 construct: range 1-441; bought (SignalChem); also called human Tau-441
T2 sequence (P10636 other isoform, or with tags, fused parts or gaps limits assumed): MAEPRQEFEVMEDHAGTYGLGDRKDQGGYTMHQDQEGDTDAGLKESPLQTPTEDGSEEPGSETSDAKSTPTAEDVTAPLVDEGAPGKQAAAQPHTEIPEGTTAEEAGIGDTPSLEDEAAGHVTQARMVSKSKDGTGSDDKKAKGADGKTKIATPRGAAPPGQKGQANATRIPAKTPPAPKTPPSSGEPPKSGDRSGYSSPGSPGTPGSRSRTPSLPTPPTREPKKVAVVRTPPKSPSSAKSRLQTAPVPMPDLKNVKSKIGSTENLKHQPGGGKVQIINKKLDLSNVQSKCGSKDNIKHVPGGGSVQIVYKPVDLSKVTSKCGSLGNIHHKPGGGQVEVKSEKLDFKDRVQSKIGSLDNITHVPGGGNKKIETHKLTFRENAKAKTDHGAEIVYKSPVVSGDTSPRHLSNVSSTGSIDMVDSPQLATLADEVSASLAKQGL
Method: Coating was done overnight in phosphate-buffered saline (PBS) at 4° C. Plates were washed thoroughly with 0.05% Tween-20/PBS and then blocked with 1% bovine serum albumin (BSA) in 0.05% Tween-20/PBS for 1 hr at 37° C. The antibody contained in the hybridoma supernatant was then added at the indicated dilutions, and incubated for 2 hrs at 37° C. after which the plates were washed as described previously.
For the indirect ELISAs, an AP-conjugated anti-mouse IgG secondary antibody (Jackson ImmunoResearch Laboratories, United Kingdom) was added at 1/6000 dilution in 0.05% Tween-20/PBS for 2 hr at 37° C. After the final wash, plates were incubated with p-nitrophenyl phosphate disodium hexahydrate (pNPP; Sigma-Aldrich, Switzerland) phosphatase substrate solution, and read at 405 nm using an ELISA plate reader (Tecan, Switzerland). Results are expressed as optical densities (O.D.).

[7] = molecular target: T3, AVI-tag biotinylated monomeric flTau (human, UniProt P10636-8 1-441, site-specific biotin on AVI-tag); experiment: capture ELISA, antibody on anti-IgG plate, biotinylated monoTau titrated, O.D.
T3 construct: also called monoTau; monomeric Tau
Method: (§2) For the oligoTau and monoTau capture ELISAs, antibodies contained in serum-free sterile hybridoma supernatants were immobilized on an anti-IgG coated plate at 500-fold dilution, followed by the incubation of oligoTau or monoTau, both with site-specific biotinylation via an AVI-tag. The target incubations started at 5 μg/mL and then were diluted 8- or 16-fold. Streptavidin-HRP and ABTS substrate was used for signal quantitation in a plate reader (Tecan, Switzerland). Results are expressed as O.D.

[8] = molecular target: T4, AVI-tag biotinylated oligomeric flTau (human, UniProt P10636-8 1-441, site-specific biotin on AVI-tag); experiment: capture ELISA, antibody on anti-IgG plate, biotinylated oligoTau titrated, O.D.
T4 construct: also called oligoTau; oligomeric Tau
Method: as §2

[9] = molecular target: T1, recombinant human Tau monomer, 2N4R …; experiment: SPR screen, hIgG captured, Tau monomer analyte; mean of n = 3
From the text: Antibody 125B11-H3 was humanized onto VH3 and Vκ1 consensus frameworks. The heavy chain graft included murine residues at position 78 (Kabat numbering system). The Vκ1 graft included murine residues in framework positions 43 and 87. The light chain of 113F5-F7 was also humanized onto the Vκ1 framework, with additional murine residues at framework positions 43 and 87. Humanized variant heavy chains (125B11) and light chains (125B11 and 113F5-F7) were co-transfected in multiple combinations and purified in 96-well format as described above. Humanized variants were then screened for affinity for human Tau monomer using the Biacore human IgG capture kit, a Series S CM5 chip and a Biacore T200 instrument. Antibodies were diluted to 2 μg/ml and captured for 15 seconds at 10 μl/min. Association and dissociation of 0, 100 and 500 nM human Tau monomer in HBSP was monitored for 180s and 300s respectively at a flow rate of 40 μl/min. A 1:1 binding model was applied to the results (Table 9).
Variants hu125B11.v17 (HC3+LC1), hu125B11.v26 (HC4+LC2) and hu125B 11.v28 (HC4+LC4) were selected for high-resolution kinetic analysis based on the affinity screen (Table 10). Antibody 94B2-C1 was humanized onto VH1 and Vx2 frameworks. The heavy chain graft also included murine residues at position 28, 29, 67, 69, 71, and 73 (Kabat numbering system). […]

B1: hu37D3-H9.v5 (antibody, V domains shown)
VH: EVQLVESGGGLVQPGGSLRLSCAASGLIFRSYGMSWVRQAPGKGLEWVATINSGGTYTYYPDSVKGRFTISRDNSKNTLYLQMNSLRAEDTAVYYCANSYSGAMDYWGQGTLVTVSS
VL: EDVLTQTPLSLPVTPGQPASISCRSSQSIVHSNGNTYFEWYLQKPGQSPQLLIYKVSNRFSGVPDRFSGSGSGTDFTLKISRVEAEDVGVYYCFQGSLVPWTFGQGTKVEIK
notes: human IgG1 or IgG4, kappa
Kd [1]: 1.9 nM
Kd [2]: 0.8 nM
Stability Index [3]: 73%
Kd [4]: 0.9 nM

B2: hu37D3-H9.v5 N28D hIgG1 (antibody, name in Kabat numbering, V domains shown)
VH: B1 VH
VL: B1 VL with N33D
notes: human IgG1, kappa; also called hu37D3-H9.v5.3
Kd [5]: 160 nM
fold reduction in affinity against hu37D3-H9.v5 [5]: > 100 fold
Stability Index [3]: 70%
Kd [4]: 73.2 nM

B3: 15C6-A7 (antibody, V domains shown)
VH: EVQLQQSGPELVKPGASVMMTCKASGYTFTDYYMKWVKQSNGKSLEWIGDLDPYTGGANYNQKFKGKATLTVDKSSSTAYMHLNSLTSEDSAVYYCARSRGYGDSFAYWGQGTLVTVSA
VL: DVLMTQTPLSLPVSLGDQASISCRSSQNIVHSNGNTYLEWYLQKPGQSPKLLIYKVSNRFSGVPDKFSGSGSGTDFTLKISRVEAEDLGVYFCFQGSHVPPTFGGGTKLEIK
notes: hybridoma supernatant
binding result [6]: binds
binding result [7]: binds
binding result [8]: binds

B4: hu37D3-H9.v1 (antibody, V domains shown)
VH: B1 VH
VL: EDQLTQSPSSLSASVGDRVTITCRSSQSIVHSNGNTYFEWYQQKPGKSPKLLIYKVSNRFSGVPSRFSGSGSGTDFTLTISSLQPEDFATYYCFQGSLVPWTFGQGTKVEIK
notes: human IgG1 or IgG4, kappa
Kd [1]: 4.1 nM
Kd [2]: 1.1 nM and 1 nM

B5: hu94B2 HC1 + LC9 (antibody, V domains shown)
VH: EVQLVQSGAEVKKPGASVKVSCKASGYSLTGYTMNWVRQAPGQGLEWIGLISPYNGVTSYNQKFKGRATLTVDKSTSTAYLELSSLRSEDTAVYYCARQGAYWGQGTLVTVSS
VL: DVVMTQTPLSLPVTPGQPASISCKSSQSLLDSDGKTYLNWLLQKPGQSPQRLIYLVSKLDSGVPDRFSGSGSGTDFTLKISRVEAEDVGVYYCWQGTHFPWTFGQGTKVEIK
Kd [9]: 3.8 nM
